In test [1] the target is α4β1 integrin (VLA-4) (UniProt P13612). Briefly: HEL cell adhesion to coated human ICAM-4Fc (2.5 ug/ml); value is for the MIXTURE of SEQ ID NO: 10 and 11, each peptide 750 uM.
The target is the same in test [2]. Briefly: HEL cell adhesion to coated human ICAM-4Fc (2.5 ug/ml), peptide 750 uM; competitor human ICAM-4Fc.
For test [3] the target is unchanged. Briefly: HEL cell adhesion to coated human ICAM-4Fc (2.5 ug/ml); value is for the MIXTURE of SEQ ID NO: 9, 10 and 11, each peptide 750 uM.
The target is the same in test [4]. Briefly: HEL cell adhesion to coated human ICAM-4Fc (2.5 ug/ml); value is for the MIXTURE of SEQ ID NO: 9, 11 and control peptide 13, each peptide 750 uM.
Test [5] has the same target. Briefly: HEL cell adhesion to coated human ICAM-4Fc (2.5 ug/ml); value is for the MIXTURE of SEQ ID NO: 10, 11 and control peptide 13, each peptide 750 uM.
Test [6] shares this target. In words: HEL cell adhesion to coated human ICAM-4Fc (2.5 ug/ml); value is for the MIXTURE of SEQ ID NO: 9 and 11, each peptide 750 uM.
For test [7] the target is unchanged. Briefly: HEL cell adhesion to coated human ICAM-4Fc (2.5 ug/ml); value is for the MIXTURE with control peptide SEQ ID NO: 13, each peptide 750 uM.
Test [8] has the same target. In words: HEL cell adhesion to coated human NCAMFc (control), no peptide.
Test [9] has the same target. In words: HEL cell adhesion to coated human ICAM-4Fc (5 ug/ml); value is for the MIXTURE with control peptide SEQ ID NO: 13, each peptide 500 uM.
The target is the same in test [10]. In words: HEL cell adhesion to coated murine ICAM-4Fc (5 ug/ml), peptide 500 uM; competitor murine ICAM-4Fc.
For test [11] the target is unchanged. Briefly: HEL cell adhesion to coated human ICAM-4Fc (2.5 ug/ml); value is for the MIXTURE of SEQ ID NO: 9 and 10, each peptide 750 uM.
Test [12] has the same target. Briefly: HEL cell adhesion to coated human ICAM-4Fc (5 ug/ml), peptide 500 uM; competitor human ICAM-4Fc.
For test [13] the target is unchanged. Briefly: HEL cell adhesion to coated murine ICAM-4Fc (5 ug/ml); value is for the MIXTURE of SEQ ID NO: 9 and 10, each peptide 500 uM.
For test [14] the target is unchanged. Briefly: HEL cell adhesion to coated human ICAM-4Fc (5 ug/ml); value is for the MIXTURE of SEQ ID NO: 9 and 10, each peptide 500 uM.
Test [15] shares this target. Briefly: HEL cell adhesion to coated human ICAM-4Fc (2.5 ug/ml); value is for the MIXTURE of SEQ ID NO: 9, 10 and control peptide 13, each peptide 750 uM.
Test [16] has the same target. Briefly: HEL cell adhesion to coated murine ICAM-4Fc (5 ug/ml); value is for the MIXTURE with control peptide SEQ ID NO: 13, each peptide 500 uM.

Sequence of α4β1 integrin (VLA-4) (P13612 34-1032, chain 1 of 2): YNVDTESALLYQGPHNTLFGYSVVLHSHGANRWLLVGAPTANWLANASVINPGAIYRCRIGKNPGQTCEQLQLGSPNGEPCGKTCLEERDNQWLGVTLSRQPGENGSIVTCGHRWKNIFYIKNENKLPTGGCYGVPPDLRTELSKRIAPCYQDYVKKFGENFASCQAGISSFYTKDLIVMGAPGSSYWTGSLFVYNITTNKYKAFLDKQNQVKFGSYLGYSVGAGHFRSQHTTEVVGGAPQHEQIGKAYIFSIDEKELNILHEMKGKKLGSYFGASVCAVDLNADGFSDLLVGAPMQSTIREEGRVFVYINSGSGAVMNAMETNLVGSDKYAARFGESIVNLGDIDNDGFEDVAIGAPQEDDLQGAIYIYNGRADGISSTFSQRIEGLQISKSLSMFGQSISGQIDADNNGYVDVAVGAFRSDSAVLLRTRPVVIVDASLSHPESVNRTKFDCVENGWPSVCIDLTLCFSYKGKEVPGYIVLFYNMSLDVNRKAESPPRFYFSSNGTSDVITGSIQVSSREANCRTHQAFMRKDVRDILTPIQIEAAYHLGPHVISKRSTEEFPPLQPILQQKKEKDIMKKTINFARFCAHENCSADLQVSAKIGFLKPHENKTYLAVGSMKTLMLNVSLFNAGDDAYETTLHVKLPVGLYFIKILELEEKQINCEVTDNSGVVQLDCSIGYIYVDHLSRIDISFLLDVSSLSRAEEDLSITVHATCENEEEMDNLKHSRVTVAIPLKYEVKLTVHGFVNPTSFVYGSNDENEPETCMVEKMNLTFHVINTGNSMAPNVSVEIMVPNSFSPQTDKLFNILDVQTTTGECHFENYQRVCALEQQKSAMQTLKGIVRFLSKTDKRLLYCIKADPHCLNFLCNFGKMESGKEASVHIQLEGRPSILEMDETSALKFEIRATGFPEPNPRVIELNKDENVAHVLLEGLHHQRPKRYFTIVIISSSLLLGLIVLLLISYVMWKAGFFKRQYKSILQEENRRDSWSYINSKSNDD
Sequence of α4β1 integrin (VLA-4) (P05556 21-798, chain 2 of 2, further chain): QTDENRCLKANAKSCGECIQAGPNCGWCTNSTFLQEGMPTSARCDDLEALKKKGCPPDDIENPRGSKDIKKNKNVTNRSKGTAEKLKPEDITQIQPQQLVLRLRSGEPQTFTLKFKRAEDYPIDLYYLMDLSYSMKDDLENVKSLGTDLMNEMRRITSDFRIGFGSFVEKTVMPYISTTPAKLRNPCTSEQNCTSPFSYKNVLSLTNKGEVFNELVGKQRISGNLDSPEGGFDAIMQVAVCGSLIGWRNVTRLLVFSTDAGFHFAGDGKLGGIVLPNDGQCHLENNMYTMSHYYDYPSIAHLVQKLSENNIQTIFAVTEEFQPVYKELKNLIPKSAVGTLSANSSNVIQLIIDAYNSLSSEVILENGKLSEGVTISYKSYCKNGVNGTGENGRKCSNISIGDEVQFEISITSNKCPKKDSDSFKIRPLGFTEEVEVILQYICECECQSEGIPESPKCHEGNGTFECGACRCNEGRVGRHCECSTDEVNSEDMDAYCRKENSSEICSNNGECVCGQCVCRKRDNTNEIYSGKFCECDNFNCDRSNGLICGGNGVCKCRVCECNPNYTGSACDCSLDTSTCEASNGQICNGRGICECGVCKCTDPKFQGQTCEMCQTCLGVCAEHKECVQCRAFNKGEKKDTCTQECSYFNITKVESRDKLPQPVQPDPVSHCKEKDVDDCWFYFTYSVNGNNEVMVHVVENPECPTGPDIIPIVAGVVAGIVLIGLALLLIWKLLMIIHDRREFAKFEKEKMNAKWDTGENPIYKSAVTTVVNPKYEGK

Consider aWssLahcl peptide (SEQ ID NO: 11), for which the input cells bound as % of binding to ICAM-4Fc in the absence of peptides with α4β1 integrin (VLA-4) [1] was 41%; with α4β1 integrin (VLA-4) [2], 50%; with α4β1 integrin (VLA-4) [3], 42%; with α4β1 integrin (VLA-4) [4], 42%; in the test with α4β1 integrin (VLA-4) [5], 40%; in the test with α4β1 integrin (VLA-4) [6], 43%. The input cells bound as % of binding to ICAM-4Fc in the absence of peptides in the test with α4β1 integrin (VLA-4) [7] came out at 46%.

For the substance “human NCAMFc (from UniProt P13591 20-718) (Fc fusion)”, in the test with α4β1 integrin (VLA-4) [8], the input cells bound as % of binding to ICAM-4Fc in the absence of peptides is 3% and the input cells bound as % of binding to murine ICAM-4Fc in the absence of peptides came to 19%.

For the substance svpFWVrms peptide (SEQ ID NO: 9), the input cells bound as % of binding to ICAM-4Fc in the absence of peptides in the test with α4β1 integrin (VLA-4) [9] was 60%; in the test with α4β1 integrin (VLA-4) [11] it was 52%; with α4β1 integrin (VLA-4) [2], 64%; with α4β1 integrin (VLA-4) [3], 42%; with α4β1 integrin (VLA-4) [12], 61%; in the test with α4β1 integrin (VLA-4) [4] it was 42%. The input cells bound as % of binding to ICAM-4Fc in the absence of peptides in the test with α4β1 integrin (VLA-4) [14] was 35%; with α4β1 integrin (VLA-4) [6] it was 43%; in the test with α4β1 integrin (VLA-4) [15] it was 49%; with α4β1 integrin (VLA-4) [7], 59%. The input cells bound as % of binding to murine ICAM-4Fc in the absence of peptides came to 67% in the test with α4β1 integrin (VLA-4) [10], 47% in the test with α4β1 integrin (VLA-4) [13] and 70% with α4β1 integrin (VLA-4) [16].

tRwATSRit peptide (SEQ ID NO: 10): the input cells bound as % of binding to ICAM-4Fc in the absence of peptides with α4β1 integrin (VLA-4) [9] was 56%; with α4β1 integrin (VLA-4) [1] it was 41%; with α4β1 integrin (VLA-4) [11], 52%; with α4β1 integrin (VLA-4) [2], 58%; with α4β1 integrin (VLA-4) [3] it was 42%; with α4β1 integrin (VLA-4) [12], 58%. Moreover, the input cells bound as % of binding to ICAM-4Fc in the absence of peptides worked out at 40% with α4β1 integrin (VLA-4) [5], 35% with α4β1 integrin (VLA-4) [14], 49% with α4β1 integrin (VLA-4) [15] and 55% with α4β1 integrin (VLA-4) [7]. In addition, the figures for the input cells bound as % of binding to murine ICAM-4Fc in the absence of peptides with α4β1 integrin (VLA-4) [10], with α4β1 integrin (VLA-4) [13] and in the test with α4β1 integrin (VLA-4) [16] were 58%, 47% and 55%, respectively.

The record behind these values is patent US20060252116A1, “Icam-4 binding sites” (priority 2002, published 2006).
